± gives the standard deviation of the averaged measurements.
What follows are sequences tested on ATP (assay: switch fluorescence ratio, 500 uM ATP over buffer (Cy3 cluster intensity, sum of 5 cycles each) (fold (ratio)); higher = stronger signal-on switching upon ATP binding; sequences stand for … in TCGTCGGCAGCGTCAGATGTGTATAAGAGACAGTTTTTTTTTTTTTTTTTTTTTTTTT…TC). Details: aptamer strand: ATP DNA aptamer (quencher-CACCTGGGGGAGTATTGCGGAGGAAGG + anchor), 100 nM annealed; ATP concentration: 500 uM.
How it was run: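 The quencher-labelled ATP aptamer, at 100 nM, was annealed to Cy3-labelled switching-strand clusters on a modified Illumina MiSeq flow-cell. The clusters were imaged in selection buffer, then after 15 min with 500 uM ATP at 22 °C, and this buffer/ATP cycle ran five times with NaOH stripping and re-annealing between runs. Per-cluster fluorescence ratios, summed target-cycle over summed buffer-cycle Cy3 intensity, were averaged per switch-domain sequence. Clusters outside 100-1000 RFU were excluded.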
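Also: ATP exposure 15 min at 22 °C before imaging.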

CCAGGCTGTT was tested. Which switch fluorescence ratio did it give?
Its switch fluorescence ratio is 1.07 ± 0.023.

Which switch fluorescence ratio does the source give for CCAGGGAGTG here?
Its switch fluorescence ratio is 1.04 ± 0.015.

With CCAGGGCGAA as the sequence, how does the switch fluorescence ratio read?
The switch fluorescence ratio was 1.064 ± 0.0056.

Which switch fluorescence ratio does the source give for CCAGGGGGCA here?
Its switch fluorescence ratio is 1.13 ± 0.14.

Which switch fluorescence ratio does the source give for CCAGGTATGA here?
Its switch fluorescence ratio is 1.03 ± 0.035.

CCAGGTGGCA was tested. Which switch fluorescence ratio did it give?
The switch fluorescence ratio was 2.83 ± 0.24.

Which switch fluorescence ratio does the source give for CCAGGTTATC here?
The switch fluorescence ratio was 1.04 ± 0.032.

Which switch fluorescence ratio does the source give for CCAGTAGTCC here?
The switch fluorescence ratio was 1.14 ± 0.0031.

For CCAGTAGTTA, which switch fluorescence ratio is on record?
Its switch fluorescence ratio is 0.999 ± 0.015.

Which switch fluorescence ratio does the source give for CCAGTATATT here?
Its switch fluorescence ratio is 1.02 ± 0.043.

With CCAGTATCTG as the sequence, how does the switch fluorescence ratio read?
The switch fluorescence ratio was 0.998 ± 0.013.

Which switch fluorescence ratio does the source give for CCAGTATGTT here?
The switch fluorescence ratio was 0.993 ± 0.024.

With CCAGTGAATA as the sequence, how does the switch fluorescence ratio read?
Its switch fluorescence ratio is 1.06 ± 0.021.

CCAGTGTGAG was tested. Which switch fluorescence ratio did it give?
The switch fluorescence ratio was 1.13 ± 0.039.

Which switch fluorescence ratio does the source give for CCAGTTAGGA here?
The switch fluorescence ratio was 1.01 ± 0.033.

For CCAGTTGATA, which switch fluorescence ratio is on record?
Its switch fluorescence ratio is 0.991 ± 0.032.

For CCAGTTTCTG, which switch fluorescence ratio is on record?
Its switch fluorescence ratio is 1.02 ± 0.012.

How did the switch fluorescence ratio turn out when CCAGTTTTCC was run?
The switch fluorescence ratio was 1.01 ± 0.036.

CCATATCCAA was tested. Which switch fluorescence ratio did it give?
Its switch fluorescence ratio is 1.06 ± 0.055.

Which switch fluorescence ratio does the source give for CCATATGT here?
Its switch fluorescence ratio is 0.985 ± 0.028.

For CCATCATAGA, which switch fluorescence ratio is on record?
Its switch fluorescence ratio is 0.9887 ± 0.0061.

Which switch fluorescence ratio does the source give for CCATCGTACC here?
Its switch fluorescence ratio is 1.3 ± 0.018.

How did the switch fluorescence ratio turn out when CCATCTAGTT was run?
The switch fluorescence ratio was 0.9681 ± 0.0047.

With CCATGACTCT as the sequence, how does the switch fluorescence ratio read?
The switch fluorescence ratio was 0.983 ± 0.016.

CCATGGCCAC was tested. Which switch fluorescence ratio did it give?
Its switch fluorescence ratio is 1.0321 ± 0.00059.

With CCATGGCCTG as the sequence, how does the switch fluorescence ratio read?
Its switch fluorescence ratio is 0.97 ± 0.042.

How did the switch fluorescence ratio turn out when CCATGGGGGT was run?
The switch fluorescence ratio was 1.16 ± 0.14.

Which switch fluorescence ratio does the source give for CCATGTGGG here?
The switch fluorescence ratio was 1.02 ± 0.013.

For CCATGTGTGC, which switch fluorescence ratio is on record?
Its switch fluorescence ratio is 1.02 ± 0.027.

CCATGTGTGT was tested. Which switch fluorescence ratio did it give?
Its switch fluorescence ratio is 1.0078 ± 7.5e-05.

Which switch fluorescence ratio does the source give for CCATTAAAAG here?
Its switch fluorescence ratio is 1 ± 0.052.

CCATTAGGAG was tested. Which switch fluorescence ratio did it give?
Its switch fluorescence ratio is 0.988 ± 0.012.

How did the switch fluorescence ratio turn out when CCATTAGGGG was run?
The switch fluorescence ratio was 1.01 ± 0.044.

With CCATTAGTTG as the sequence, how does the switch fluorescence ratio read?
Its switch fluorescence ratio is 0.998 ± 0.02.

For CCATTATTTT, which switch fluorescence ratio is on record?
The switch fluorescence ratio was 1 ± 0.03.

How did the switch fluorescence ratio turn out when CCATTCTAGA was run?
Its switch fluorescence ratio is 1.012 ± 0.0013.

How did the switch fluorescence ratio turn out when CCATTCTCTC was run?
The switch fluorescence ratio was 0.974 ± 0.082.

Which switch fluorescence ratio does the source give for CCATTGGGGT here?
The switch fluorescence ratio was 0.995 ± 0.017.

Which switch fluorescence ratio does the source give for CCATTGTAAT here?
Its switch fluorescence ratio is 1.1 ± 0.024.

CCATTGTGTG was tested. Which switch fluorescence ratio did it give?
Its switch fluorescence ratio is 0.98955 ± 0.00067.

Which switch fluorescence ratio does the source give for CCATTTGCGC here?
Its switch fluorescence ratio is 1.02 ± 0.034.

Which switch fluorescence ratio does the source give for CCATTTGTTG here?
The switch fluorescence ratio was 0.971 ± 0.02.

How did the switch fluorescence ratio turn out when CCATTTTTAC was run?
Its switch fluorescence ratio is 1.1 ± 0.13.

How did the switch fluorescence ratio turn out when CCCAAAATGC was run?
Its switch fluorescence ratio is 2.87 ± 1.5.

For CCCAGGAGGC, which switch fluorescence ratio is on record?
Its switch fluorescence ratio is 1.08 ± 0.03.

For CCCATCCATC, which switch fluorescence ratio is on record?
The switch fluorescence ratio was 1.03 ± 0.029.

Which switch fluorescence ratio does the source give for CCCATGTGAG here?
The switch fluorescence ratio was 1.09 ± 0.022.

How did the switch fluorescence ratio turn out when CCCATTGTTT was run?
Its switch fluorescence ratio is 1.01 ± 0.022.

For CCCATTTAGT, which switch fluorescence ratio is on record?
The switch fluorescence ratio was 1.04 ± 0.023.

CCCCAAGCAG was tested. Which switch fluorescence ratio did it give?
Its switch fluorescence ratio is 2.497 ± 0.0041.

For CCCCACTGTG, which switch fluorescence ratio is on record?
The switch fluorescence ratio was 1.53 ± 0.69.

How did the switch fluorescence ratio turn out when CCCCAGGCAT was run?
The switch fluorescence ratio was 2.68 ± 0.5.

With CCCCCGGGGT as the sequence, how does the switch fluorescence ratio read?
Its switch fluorescence ratio is 1.83 ± 0.38.

For CCCCGGATGG, which switch fluorescence ratio is on record?
Its switch fluorescence ratio is 1.26 ± 0.22.

With CCCCTGGATA as the sequence, how does the switch fluorescence ratio read?
The switch fluorescence ratio was 1.03 ± 0.043.

CCCCTGGCAT was tested. Which switch fluorescence ratio did it give?
Its switch fluorescence ratio is 1.42 ± 0.022.

For CCCGCGGTGT, which switch fluorescence ratio is on record?
Its switch fluorescence ratio is 2.41 ± 0.19.

For CCCGCTAGTG, which switch fluorescence ratio is on record?
The switch fluorescence ratio was 1.54 ± 0.12.

Which switch fluorescence ratio does the source give for CCCGGAAGGT here?
The switch fluorescence ratio was 1.041 ± 0.0048.

With CCCGGGGGGT as the sequence, how does the switch fluorescence ratio read?
The switch fluorescence ratio was 1.56 ± 1.

How did the switch fluorescence ratio turn out when CCCGGGGGTT was run?
Its switch fluorescence ratio is 1.14 ± 0.13.

With CCCGGGTAGG as the sequence, how does the switch fluorescence ratio read?
The switch fluorescence ratio was 1.041 ± 0.0026.

CCCGTATACA was tested. Which switch fluorescence ratio did it give?
The switch fluorescence ratio was 1.206 ± 0.0072.

How did the switch fluorescence ratio turn out when CCCTATCAAT was run?
Its switch fluorescence ratio is 1.1 ± 0.038.

For CCCTATTTTT, which switch fluorescence ratio is on record?
The switch fluorescence ratio was 1.01 ± 0.035.

CCCTCTATTC was tested. Which switch fluorescence ratio did it give?
The switch fluorescence ratio was 1.06 ± 0.03.

For CCCTGAGGGT, which switch fluorescence ratio is on record?
The switch fluorescence ratio was 1.01 ± 0.023.

CCCTTATGGT was tested. Which switch fluorescence ratio did it give?
The switch fluorescence ratio was 0.9932 ± 0.0086.

For CCCTTGGATA, which switch fluorescence ratio is on record?
Its switch fluorescence ratio is 0.993 ± 0.021.

CCCTTGTCCG was tested. Which switch fluorescence ratio did it give?
Its switch fluorescence ratio is 1.05 ± 0.037.

Which switch fluorescence ratio does the source give for CCCTTTTGGG here?
The switch fluorescence ratio was 0.997 ± 0.035.

For CCGAACGTCG, which switch fluorescence ratio is on record?
The switch fluorescence ratio was 1.88 ± 0.27.

With CCGAACTGAT as the sequence, how does the switch fluorescence ratio read?
Its switch fluorescence ratio is 1.13 ± 0.027.

For CCGAAGGATT, which switch fluorescence ratio is on record?
The switch fluorescence ratio was 1.022 ± 0.0044.

With CCGACGGAGG as the sequence, how does the switch fluorescence ratio read?
Its switch fluorescence ratio is 1.99 ± 1.2.

With CCGAGAGAGC as the sequence, how does the switch fluorescence ratio read?
The switch fluorescence ratio was 1.13 ± 0.04.

How did the switch fluorescence ratio turn out when CCGAGAGGGC was run?
The switch fluorescence ratio was 1.15 ± 0.092.

Which switch fluorescence ratio does the source give for CCGAGGAAGC here?
The switch fluorescence ratio was 1.34 ± 0.14.

Which switch fluorescence ratio does the source give for CCGAGTTAAG here?
Its switch fluorescence ratio is 1.08 ± 0.012.

Which switch fluorescence ratio does the source give for CCGATGGTCT here?
The switch fluorescence ratio was 1.25 ± 0.072.

How did the switch fluorescence ratio turn out when CCGATGTGGT was run?
Its switch fluorescence ratio is 1.57 ± 0.039.

Which switch fluorescence ratio does the source give for CCGATGTGTC here?
The switch fluorescence ratio was 2.42 ± 0.52.

CCGCCCGGAT was tested. Which switch fluorescence ratio did it give?
Its switch fluorescence ratio is 1.14 ± 0.018.

CCGCGAGCTA was tested. Which switch fluorescence ratio did it give?
The switch fluorescence ratio was 4.52 ± 1.1.

How did the switch fluorescence ratio turn out when CCGCGGCTTG was run?
The switch fluorescence ratio was 1.12 ± 0.053.

With CCGCTGGATG as the sequence, how does the switch fluorescence ratio read?
Its switch fluorescence ratio is 1.202 ± 0.011.

CCGCTGGGGG was tested. Which switch fluorescence ratio did it give?
Its switch fluorescence ratio is 1.177 ± 0.0036.

CCGCTGGTGT was tested. Which switch fluorescence ratio did it give?
Its switch fluorescence ratio is 3.59 ± 0.29.

With CCGCTTGAGA as the sequence, how does the switch fluorescence ratio read?
The switch fluorescence ratio was 1.08 ± 0.025.

CCGGACACGA was tested. Which switch fluorescence ratio did it give?
Its switch fluorescence ratio is 1.39 ± 0.042.

How did the switch fluorescence ratio turn out when CCGGACAGGT was run?
Its switch fluorescence ratio is 1.13 ± 0.023.

How did the switch fluorescence ratio turn out when CCGGAGAGGG was run?
The switch fluorescence ratio was 1.7 ± 0.61.

How did the switch fluorescence ratio turn out when CCGGAGATCC was run?
The switch fluorescence ratio was 2.06 ± 0.22.

For CCGGATATGT, which switch fluorescence ratio is on record?
The switch fluorescence ratio was 1.08 ± 0.046.

CCGGATGGGT was tested. Which switch fluorescence ratio did it give?
The switch fluorescence ratio was 1.012 ± 0.0037.

With CCGGATGGTG as the sequence, how does the switch fluorescence ratio read?
The switch fluorescence ratio was 1.017 ± 0.0044.

How did the switch fluorescence ratio turn out when CCGGCGGATT was run?
The switch fluorescence ratio was 1.08 ± 0.056.

How did the switch fluorescence ratio turn out when CCGGGAAAGC was run?
The switch fluorescence ratio was 1.18 ± 0.25.

For CCGGGAGGGG, which switch fluorescence ratio is on record?
The switch fluorescence ratio was 1.11 ± 0.12.

How did the switch fluorescence ratio turn out when CCGGGAGTCG was run?
The switch fluorescence ratio was 1.06 ± 0.017.

From the supplement of paper PMC10126150
